In PMC5525514 (Journal of biomolecular screening, 2011):

B1: GST-RGS17 (human RGS17 with an N-terminal glutathione-S-transferase and a C-terminal 6xHis tag) (domain or fragment, UniProt Q9UGC6 61-210, looked up)
chain: MESIQVLEECQNPTAEEVLSWSQNFDKMMKAPAGRNLFREFLRTEYSEENLLFWLACEDLKKEQNKKVIEEKARMIYEDYISILSPKEVSLDSRVREVINRNLLDPNPHMYEDAQLQIYTLMHRDSFPRFLNSQIYKSFVESTAGSSSES
B2: 6x-His-tagged Gαo, not biotinylated (free Gαo) (natural protein, UniProt P59215 1-354, looked up)
chain: MGCTLSAEERAALERSKAIEKNLKEDGISAAKDVKLLLLGAGESGKSTIVKQMKIIHEDGFSGEDVKQYKPVVYSNTIQSLAAIVRAMDTLGVEYGDKERKADSKMVCDVVSRMEDTEPFSAELLSAMMRLWGDSGIQECFNRSREYQLNDSAKYYLDSLDRIGAADYQPTEQDILRTRVKTTGIVETHFTFKNLHFRLFDVGGQRSERKKWIHCFEDVTAIIFCVALSGYDQVLHEDETTNRMHESLMLFDSICNNKFFIDTSIILFLNKKDLFGEKIKKSPLTICFPEYPGSNTYEDAAAYIQTQFESKNRSPNKEIYCHMTCATDTNNIQVVFDAVTDIIIANNLRGCGLY
B3: free Gαo: un-biotinylated Gαo protein used as competitor in the AlphaScreen competition binding assay (protein)
chain: B2 chain
modifications: left off: His6, end not stated, state not stated

Experiments:
[1] = biological target: biotinylated 6x-His-tagged Gαo (UniProt P59215 1-354, biotin (EZ-Link Biotin-BMCC, maleimide chemistry, labeled at a 10:1 biotin/protein ratio)); assay: AlphaScreen or HTRF
[2] = biological target: B1; assay: AlphaScreen or HTRF
Gαo–RGS17 interaction = biological target: T1, Gαo–RGS17 interaction (Homo sapiens, UniProt Q9UGC6); assay: AlphaScreen competition binding with free Gαo
T1 sequence (Q9UGC6 61-210 limits assumed): B1 chain

Work on B1 yielded a Kd [1] of 29.2 ± 4.4 nM.

Work on B2 yielded an IC50 [2] of 46 ± 1.1 nM.

B3 showed a Hill slope (Gαo–RGS17 interaction) of −1.3.
